The results in this text go back to paper PMC2973826, “Translation Elongation Factor 1A Facilitates the Assembly of the Tombusvirus Replicase and Stimulates Minus-Strand Synthesis” (PLoS Pathogens, 2010).

This assay deals with T1, MBP-tagged TCV p88C (lacking the p28-overlapping domain from the N-terminus) (Turnip crinkle virus, UniProt P17460 252-775).
T1 sequence: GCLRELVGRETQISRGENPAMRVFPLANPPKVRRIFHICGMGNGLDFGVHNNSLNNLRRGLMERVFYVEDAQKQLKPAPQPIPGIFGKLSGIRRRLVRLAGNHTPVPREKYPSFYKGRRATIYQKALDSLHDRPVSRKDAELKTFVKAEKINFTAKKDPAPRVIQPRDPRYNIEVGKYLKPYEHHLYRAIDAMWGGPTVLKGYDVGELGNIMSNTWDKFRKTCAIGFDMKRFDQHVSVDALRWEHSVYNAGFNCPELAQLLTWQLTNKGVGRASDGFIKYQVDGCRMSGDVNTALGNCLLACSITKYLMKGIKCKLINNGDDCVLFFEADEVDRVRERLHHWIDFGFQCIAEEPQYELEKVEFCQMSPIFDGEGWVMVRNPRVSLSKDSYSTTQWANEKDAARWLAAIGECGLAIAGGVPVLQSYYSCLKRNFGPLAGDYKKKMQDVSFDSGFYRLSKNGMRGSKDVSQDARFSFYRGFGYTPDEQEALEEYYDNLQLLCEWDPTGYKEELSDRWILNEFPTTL
The assay is described as follows: cell-based or functional assay.

B1: eukaryotic translation elongation factor 1A (eEF1A), wild type (natural protein, S. cerevisiae, UniProt P02994 1-458, looked up)
chain: MGKEKSHINVVVIGHVDSGKSTTTGHLIYKCGGIDKRTIEKFEKEAAELGKGSFKYAWVLDKLKAERERGITIDIALWKFETPKYQVTVIDAPGHRDFIKNMITGTSQADCAILIIAGGVGEFEAGISKDGQTREHALLAFTLGVRQLIVAVNKMDSVKWDESRFQEIVKETSNFIKKVGYNPKTVPFVPISGWNGDNMIEATTNAPWYKGWEKETKAGVVKGKTLLEAIDAIEQPSRPTDKPLRLPLQDVYKIGGIGTVPVGRVETGVIKPGMVVTFAPAGVTTEVKSVEMHHEQLEQGVPGDNVGFNVKNVSVKEIRRGNVCGDAKNDPPKGCASFNATVIVLNHPGQISAGYSPVLDCHTAHIACRFDELLEKNDRRSGKKLEDHPKFLKSGDAALVKFVPSKPMCVEAFSEYPPLGRFAVRDMRQTVAVGVIKSVDKTEKAAKVTKAAQKAAKK
B1: the “in vitro (−)RNA synthesis by the TCV RdRp on a TBSV (+)RNA template after pre-incubation of purified wt eEF1A with the TCV RdRp” value is roughly 5 fold.
